In article PMC6591006, “Broad and Potent Neutralizing Antibodies Recognize the Silent Face of the HIV Envelope” (Immunity, 2019):

Legend:
[1] = biological target: T1, YU2 gp140 foldon trimer (wild type) (HIV-1 group M subtype B isolate YU-2, UniProt P35961, stabilised); assay: ELISA; YU2 gp120/gp140 proteins coated on the plate at 2 μg/ml; IgG in a 1:3 dilution series from 4 or 10 μg/ml, 1 h at room temperature or 37°C, in 1% BSA in PBS; detected with anti-human IgG; conditions: both partners purified
T1 construct: also called uncleaved YU2 gp140 foldon trimer; YU2 gp140 WT; source: 293-6E, transiently transfected, purified (Ni-NTA)

[2] = biological target: T2, YU2 gp120 monomer (wild type) (HIV-1 group M subtype B isolate YU-2, UniProt P35961); assay: as above; conditions: both partners purified
T2 construct: also called monomeric YU2 gp120; YU2 gp120 WT; source: 293-6E, transiently transfected, purified (Ni-NTA)

B1: Monoclonal anti-HIV-1 Env SF12 (IgG) (antibody, V domains shown)
VH: QVQLQESGPGLVKPSETLSVTCRVSGGSLDLYYWSWIRQPPGKGLQWIGFVYFDGSYGDYDPSLRSRVTISADMSKNQISLRLKSVTPADTAVYYCARLGPGGIFDRWTGHYGDKWLDPWGQGTLVTVSS
VL: QIDLTQSPRTLSLSAGERATLLCRASQSVSNVALAWYQHKPGQAPRLLLHEASTRATGIPDRFIGSGSGRDFTLTITSLEPEDFAVYYCQLSGRRLGQGTKVEIK
binding result [1]: binds | binding result [2]: binds

B2: Monoclonal anti-HIV-1 Env SF5 (IgG) (antibody, V domains shown)
VH: QVQLQESGPGLVKPSETLSVTCRVSGGSLDRYYWSWIRQPPGEGLQWIGHVYFDGSYGDYDPSLRSRVTITADMSKYQIILRLRSVTPADTAVYYCARLGPGGIFDRWTGHYGDKWLDPWGQGTLVTVSS
VL: QIVLTQSPRTLSLSAGERATLLCRASQSVSNVALAWYQHKPGQAPRLLLHEASIRAAGIPDRFVGSGSGRDFTLTITSLHPEDFAVYYCQLSGRRLGPGTKVEIK
binding result [1]: binds | binding result [2]: binds
